{
  "source": "paper PMC5500832",
  "about": "(Chemical Science, 2015)",
  "assay_type": "physicochemical",
  "conditions": "all pH values (3, 5, 7 and 9); 20 °C; over eight days; HPLC-MSMS; detection limit = 0.05%",
  "data": [
    {"sequence": "FFRKSIINFEKL [compound 3]", "values": [
      {"measurement": "Formation of α-GalCer (background hydrolysis, linker collapse)", "value": "No formation of α-GalCer was detected"}
    ]}
  ]
}
